Assay results as given in US20220213462A1.

Biological target: peptide VWF73 (FRET substrate encompassing the ADAMTS13 recognition site of von Willebrand factor) (UniProt P04275)
Assay: cell-based or functional assay
Details: scale: µL of normal human plasma equivalent per 200,000 cells

Chain of peptide VWF73 (FRET substrate encompassing the ADAMTS13 recognition site of von Willebrand factor) (P04275 1596-1668 limits assumed): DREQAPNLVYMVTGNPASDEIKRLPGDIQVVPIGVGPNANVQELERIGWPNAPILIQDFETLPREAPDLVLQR

- VWF73 FRET assay, ADAMTS13 enzymatic activity (K562 cells): 10
- VWF73 FRET assay, ADAMTS13 enzymatic activity (iPSC-derived erythroid cells): 10
Substance: GPI-ADAMTS13 (AD5): first 745 amino acids of human ADAMTS13 fused to the DAF GPI anchor sequence (from UniProt Q76LX8 75-745) (enzyme)
